We go through one protein from FireProtDB (doi:10.1016/0022-2836(92)90560-7).

The conditions of this series: Bacillus amyloliquefaciens, 25 °C, Urea, Fluorescence, MES/Tris 150 mM/150 mM/, NaCl 1 M, whole UniProt chain shown.

B1: Ribonuclease wild type, P00648 (protein)
chain: MMKMEGIALKKRLSWISVCLLVLVSAAGMLFSTAAKTETSSHKAHTEAQVINTFDGVADYLQTYHKLPDNYITKSEAQALGWVASKGNLADVAPGKSIGGDIFSNREGKLPGKSGRTWREADINYTSGFRNSDRILYSSDWLIYKTTDHYQTFTKIR
Turning to B1, under “pH 5.8”, the denaturant m value turned out to be 1.95 kcal/mol/M, the “denaturant midpoint (higher = more stable)” value was found to be 5.62 M and the unfolding free energy turned out to be 11 kcal/mol. Where the note is “pH 9”, the denaturant m value came to 2.11 kcal/mol/M, the “denaturant midpoint (higher = more stable)” value is 4.8 M and the unfolding free energy came out at 9.41 kcal/mol.
